The record followed here is article PMC11993163.

Assay [1] has as its target PfNPM A3 (residues 1-170, up to A3 acidic tract) (Plasmodium falciparum) (UniProt C0H4U4). Nature of the assay: pull-down.
Assay [2] addresses PfNPM A1 (residues 1-110, up to A1 acidic tract) (Plasmodium falciparum) (UniProt C0H4U4). The assay is described as follows: pull-down.

Regarding “assembled H3/H4 tetramer (from UniProt P84233 1-136; P62799 1-103) (complex)”, the highest NaCl concentration at which the complex was stable in assay [1] and in assay [2] was 600 mM NaCl in each case.
